Assay [1] concerns the target T1, human APRIL protein (human, UniProt O75888 105-250, limits assumed).
T1 construct: Bought protein; also called recombinant APRIL protein
T1 sequence (looked up): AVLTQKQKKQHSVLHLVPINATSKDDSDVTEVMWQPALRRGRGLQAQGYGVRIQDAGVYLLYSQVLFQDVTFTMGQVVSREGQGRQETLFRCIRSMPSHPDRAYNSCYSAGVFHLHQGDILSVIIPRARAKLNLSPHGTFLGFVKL
Briefly: ELISA, coated APRIL; antibody 66.7 nM. How it is done: (§1) To test whether the BLyS antibody cross-reacted with human APRIL protein, APRIL protein (purchased from R & D Systems) was first diluted to a final concentration of 1.0 μg/mL with PBS, and then 50 μL of which per well was aliquoted into a 96-well ELISA plate, and the plate was subsequently sealed with plastic film and incubated at 4° C. overnight. On the next day the plate was rinsed four times with the plate washing buffer [PBS buffer containing 0.0500 (v/v) Tween20] and a blocking solution [PBS buffer containing 0.05 (v/v) Tween20 and 1 (w/w) BSA] was added, then the protein was blocked at 37° C. for 2 hours. The blocking solution was removed and 100 μL per well of the lead antibodies prepared in Embodiment 1 and 2 were added in. After incubation for 1 hour at 37° C., the plate was rinsed four times with the plate washing buffer [PBS buffer containing 0.05 (v/v) Tween20]. HRP-labeled (horseradish peroxidase) secondary antibody (purchased from Sigma) was added in and incubated at 37° C. for 1 hour. The plate was then rinsed four times with the plate washing buffer [PBS buffer containing 0.050 (v/v) Tween20]. 100 μL of TMB substrate was aliquoted into each well and after incubation at room temperature for 5 minutes, 100 μL of stop solution (1.0 N HCl) was aliquoted into each well. A₄₅₀ₙₘ values were read via an ELISA plate reader (SpectraMax M5e purchased from Molecular Devices) and the results were shown in FIGS. 6A-6B and Table 11. […] As used herein, the IgG control is human IgG and the data in the table is GD number at 450 nm.
In general terms: ELISA stands for enzyme-linked immunosorbent assay.

Assay [2] deals with T1, human APRIL protein. Briefly: ELISA, coated APRIL; antibody 0 nM (blank). How it is done:
as §1

In assay [3] the target is T1, human APRIL protein. Briefly: ELISA, coated APRIL; antibody 0.534 nM. How it is done:
as §1

For assay [4], the target named is T1, human APRIL protein. Nature of the assay: ELISA, coated APRIL; antibody 13.3 nM. How it is done:
as §1

Assay [5] concerns the target T1, human APRIL protein. Briefly: ELISA: APRIL coated at 1.0 µg/mL, antibody titrated, HRP secondary antibody. How it is done: as §1
For assay [6], the target named is T2, human BLyS (full length, arginine 132 mutated to histidine) on CHO-K1 cells (human, UniProt Q9Y275 1-285).
T2 construct: also called hBLyS; CHO-K1 hBLyS
T2 sequence (Q9Y275 other isoform, or with tags, fused parts or gaps limits assumed, change not shown): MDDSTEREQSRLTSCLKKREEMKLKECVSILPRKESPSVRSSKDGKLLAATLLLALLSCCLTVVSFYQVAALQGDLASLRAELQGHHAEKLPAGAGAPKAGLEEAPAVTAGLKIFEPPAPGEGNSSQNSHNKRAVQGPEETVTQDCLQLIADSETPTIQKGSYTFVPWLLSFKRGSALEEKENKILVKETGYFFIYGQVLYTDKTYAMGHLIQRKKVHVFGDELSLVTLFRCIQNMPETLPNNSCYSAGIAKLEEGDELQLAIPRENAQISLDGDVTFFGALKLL
Nature of the assay: flow cytometry (FACS) on CHO-K1 hBLyS cells, Alexa 488 secondary antibody. How it is done:
(§2) The medium was aspirated completely, and the cells were rinsed once with PBS buffer (purchased from Invitrogen) and then treated with cell dispersion solution (TrypLE™ Express Enzyme, purchased from Life technology) and collected. The detailed steps are as follows: the cells were rinsed once with PBS buffer, after counting, the cells were diluted to 2×10⁶ cells/ml with PBS buffer, blocked with 2% (w/w) fetal bovine serum and incubated on ice for 30 minutes. 200 μL of which per well was aliquoted into a 96-well FACS plate and centrifuged at 2000 rpm at 4° C., then each 100 μL of the lead antibodies obtained from Embodiment 1 and 2 were aliquoted into each well and incubated on ice for 1 hour. […] After centrifuged and rinsed 3 times with FACS buffer, cells were suspended with 200 μL of FACS buffer and the results were detected and analyzed by FACS (FACS Calibur, purchased from BD). It was shown in Tables 12-13 that the lead antibody could bind to human BLyS protein on the cell surface and the lead antibody could cross-react with cynomolgus BLyS. The data in the table is MFI, the average fluorescence intensity of the cell population.
(A flow cytometer gives signals particle by particle.)

The target in assay [7] is T1, human APRIL protein. Nature of the assay: ELISA, coated APRIL; antibody 0.0213 nM. How it is done: as §1
Assay [8] has as its target T1, human APRIL protein. Nature of the assay: ELISA, coated APRIL; antibody 0.00427 nM. How it is done: as §1
In assay [9] the target is T1, human APRIL protein. Nature of the assay: ELISA, coated APRIL; antibody 0.107 nM. How it is done:
as §1

In assay [10] the target is T1, human APRIL protein. Briefly: ELISA, coated APRIL; antibody 2.67 nM. How it is done: as §1
The target in assay [11] is T3, cynomolgus BLyS (full length, arginine 132 mutated to histidine) on CHO-K1 cells (cynomolgus, UniProt Q9Y275 1-285 (human entry)).
T3 construct: also called cyno BLyS; CHO-K1 cynoBLyS
T3 chain: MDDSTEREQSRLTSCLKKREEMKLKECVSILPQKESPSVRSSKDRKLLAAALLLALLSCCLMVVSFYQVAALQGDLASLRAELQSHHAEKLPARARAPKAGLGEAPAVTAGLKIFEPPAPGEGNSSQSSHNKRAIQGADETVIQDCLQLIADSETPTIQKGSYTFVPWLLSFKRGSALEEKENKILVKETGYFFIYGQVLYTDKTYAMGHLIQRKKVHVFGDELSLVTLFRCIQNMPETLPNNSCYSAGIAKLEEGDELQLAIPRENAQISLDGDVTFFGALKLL
Nature of the assay: flow cytometry (FACS) on CHO-K1 cynoBLyS cells, Alexa 488 secondary antibody. How it is done: as §2

For orientation: EC50 (read off the curve) means the concentration giving half of the maximal effect. A low value points to greater potency.

B1: 78C11D2D12 (antibody, V domains shown)
VH: QVQLQQSGAELVRPGTSVKISCKASGYAFTNYWLGWVKQRPGHGLEWIGDIYPGSGNTYYNEKFKGKATLTADKSSSTAYMQLSSLTSEDSAVFFCAAYLYAMDYWGQGTSVTVSS
VL: QIVLTQSPAIMSASPGEKVTITCSASSSVSYMHWFQQKPGTSPKLWIYSASNLASGVPARFSGSGSGTSYSLTISRMEAEDAATYYCQQRGSYPFTFGSGTKLEIK
notes: Mouse hybridoma antibody purified on Protein G
On to B1, for which the OD450 nm came out at 0.138 with human APRIL protein [1]; 0.0565 with human APRIL protein [2]; 0.0553 with human APRIL protein [3]; 0.0703 with human APRIL protein [4]; 0.0534 with human APRIL protein [7]; 0.0564 with human APRIL protein [8]. Moreover, the OD450 nm in the assay with human APRIL protein [9] came to 0.0549; with human APRIL protein [10] it was 0.0613. Moreover, in the assay with human APRIL protein [5], the binding result is recorded as “no binding (tested: 66.7 nM)”. Besides, the “EC50 (read off the curve)” value in assay [6] and in assay [11] was ~0.2 nM throughout.

B2: 93C6F10D3 (antibody, V domains shown)
VH: EVQLVESGGGLVTPGGSLKLSCVASGFAFSTYGMSWVRQTPERRLEWVAYISGGGGSIYYPDSVKGRFTISRDNAKNILYLQMSSLKSEDTAMYHCTRHPDLLLRYDYALDHWGQGTSVTVSS
VL: DIQMTQSPASLSASVGETVTITCRASENIHIYLAWYQQKQGKSPQLLVYNGKTLADGVPSRFSGSGSGTQYSLKINTLQPEDFGNYYCQHFWNSTWTFGGGTKLEIK
notes: as for B1
For B2, the “EC50 (read off the curve)” value in assay [6] and in assay [11] was ~0.1 nM throughout.

B3: 35E6F7C3 (antibody, V domains shown)
VH: EVQLQQSGAELVKPGASVKLSCTAAGFNIQDTYIHWVKQRPEQGLEWIGRIDPANANTVYDPKFQGKATITADTSSNTAYLQVSSLTSEDTAVYYCASPVITAGFAYWGQGTLVTVSA
VL: QIVLTQSPAIMSASPGEKVTMTCGASSSVNYVHWYQQKSGTSPKRWIYDTSKLASGVPARFSGSGSGTSYSLTISSMEAEDAATYYCQQWTRSPLTFGAGTKVELK
notes: as for B1
As to B3, the OD450 nm in the assay with human APRIL protein [1] came to 0.0703; in the assay with human APRIL protein [2] it was 0.0542; with human APRIL protein [3], 0.0544; with human APRIL protein [4] it was 0.0567; with human APRIL protein [7], 0.0532; with human APRIL protein [8] it was 0.0553. For the same molecule, the results for the OD450 nm with human APRIL protein [9] and with human APRIL protein [10] were 0.0537 and 0.0561, respectively. For the same molecule, the binding result in the assay with human APRIL protein [5] was “no binding (tested: 66.7 nM)”. Further, the “EC50 (read off the curve)” value in assay [11] was ~0.7 nM.

B4: 89A2G5E7 (antibody, V domains shown)
VH: QVQLKESGPGLVAPSQSLSITCTVSGLSLNSHDISWIRQPPGKGLEWLGVIWSGGGTKYNSAFMSRLSISKDNSKSQVFLKMNSLHTDDTAIYYCVRTPSMITYSAMDYWGQGTSVTVSS
VL: EIVLTQSPALMAASPGEKVTITCSVSSSISSRNLHWYQQKSQTSPKAWIHATSNLASGVPVRFSGSGSGTSYSLTISSMEAEDAATYYCQQWSSYPLTFGSGTKLEIK
notes: as for B1
Take B4: the OD450 nm is 0.196 in the assay with human APRIL protein [1]; 0.0655 with human APRIL protein [2]; 0.0565 with human APRIL protein [3]; 0.0973 with human APRIL protein [4]; 0.0547 with human APRIL protein [7]; 0.0578 with human APRIL protein [8]. The OD450 nm with human APRIL protein [9] was found to be 0.0548; in the assay with human APRIL protein [10], 0.0614. In the assay with human APRIL protein [5], the binding result is reported as “no binding (tested: 66.7 nM)”. For the same molecule, the “EC50 (read off the curve)” value in assay [6] and in assay [11] was ~0.7 nM in each case.

B5: 2-1G11 (antibody, human IgG1, V domains shown)
VH: EVQLVESRGGVVQPGRSLRLSCAASGFTFSSYGMHWVRQAPGKGLEWVAVISYDGSNKYYADSVKGRFTISRDNSKNTLYLQMNSLRAEDAAVYYCARDRVDILTGYSIYGMDVWGQGTTVTVSS
VL: EIVMTQSPATLSLSPGERATLSCRASQSVSSYLAWYQQKPGQAPRLLIYDASKRATGIPARFSGSGSGTDFTLTISSLEPEDFAVYYCQQRSNWPLTFGGGTKVEIK
As for B5, the OD450 nm in the assay with human APRIL protein [1] came out at 0.296; with human APRIL protein [2], 0.0847; in the assay with human APRIL protein [3] it was 0.0668; with human APRIL protein [4], 0.137; in the assay with human APRIL protein [7] it was 0.0733; with human APRIL protein [8], 0.107. The figures for the OD450 nm with human APRIL protein [9] and with human APRIL protein [10] were 0.0699 and 0.0901, respectively. Besides, in the assay with human APRIL protein [5], the binding result is given as “no binding (tested: 66.7 nM)”. For the same molecule, the “EC50 (read off the curve)” value in assay [6] is ~0.09 nM; in assay [11], ~0.1 nM.
